Data from article doi:10.1101/2021.05.13.443999.

Molecular target: p47^phox (human (endogenous in HEK-293 and in human midbrain)) (UniProt P14598)
Experiment: proximity ligation

Chain of UniProt P14598 (P14598 whole entry): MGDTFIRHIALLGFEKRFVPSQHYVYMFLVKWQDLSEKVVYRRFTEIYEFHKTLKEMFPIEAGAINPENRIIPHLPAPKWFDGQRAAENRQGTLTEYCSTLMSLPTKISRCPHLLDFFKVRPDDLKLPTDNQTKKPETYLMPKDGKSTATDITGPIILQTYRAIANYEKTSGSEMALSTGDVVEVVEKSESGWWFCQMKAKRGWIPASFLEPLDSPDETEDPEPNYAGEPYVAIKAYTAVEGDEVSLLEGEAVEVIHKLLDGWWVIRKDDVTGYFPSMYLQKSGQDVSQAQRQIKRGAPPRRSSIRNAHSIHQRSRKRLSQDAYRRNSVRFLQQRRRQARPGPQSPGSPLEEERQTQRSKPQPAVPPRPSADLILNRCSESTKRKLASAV

IC50: 700 nM
Substance: NOX2 docking sequence (Nox2ds)-tat (peptide)
